Here are results for 32 sequences from the supplement of paper PMC9170038.

The data set deals with MS2 coat protein. The experiment in a line: apparent KD of MS2 coat protein; designed switch direction (-1 OFF switch, 1 ON switch): -1; higher = weaker reporter binding. The gist of the method: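 Each step of the titration lasted 0.8–1.5 h at the lowest concentration and 10–20 min at the highest. The protein, SNAP-549-labelled MS2 coat protein, went from 0.7 or 1.5 nM doubling to 3 µM over RNA switches transcribed on Illumina chips by stalled E. coli RNA polymerase. Normalised cluster fluorescence was curve-fitted, and the per-design median over clusters is given as apparent KD.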

[1] abbreviates: Eterna round: R95, input ligand: microRNA oligo, concentration not stated.
The mark [2] stands for this setting: input ligand: microRNA oligo, concentration not stated.

On to “GGAAGGCGAGGAUAUGCAAUAAUACACUCGAAGGAGUGAUAACAUGAGGAUCACCCAUGUAGAAGGCGCGAGAA [AK-MS2ROC-r4-exclusion2-6] (Eterna round: R97, puzzle: Exclusion 2)”, for which the “apparent KD of MS2 coat protein” value is, setting by setting: (input ligand: FMN 200 uM) 36.1 nM; (input ligand: none) 36.1 nM.

As to “GGAAGGUGAGGAUAUACUAAGCCGGAAACGGCAGGUGAGAGACAUGAGGAUCACCCAUGUAGAAGGCACGGAGA [AK-MS2ROC-r4-exclusion2-17] (Eterna round: R97, puzzle: Exclusion 2)”, the “apparent KD of MS2 coat protein” value by setting is: (input ligand: FMN 200 uM) 291 nM; (input ligand: none) 85.5 nM.

For “GGACAGGGAGGAUAUACUUGAGGAUCACCCAAGUCGUAUAAUCGAUGAACACGCCGAAGUAGAAGGCCCAAAAG [Esorgebi] (Eterna round: R97, puzzle: Exclusion 3)”, the “apparent KD of MS2 coat protein” value runs as follows: (input ligand: FMN 200 uM) 403 nM; (input ligand: none) 131 nM.

In the case of “GGACAGUCAGGAUAUACAUGAGGAUCACCCAUGUUGAGAUGUGAAAGGGCGGGAGUAGGUAGAAGGGACGAGAG [JR_Exclu3_Sub040] (puzzle: Exclusion 3)”, under setting [1], the “apparent KD of MS2 coat protein” value turned out to be 23.2 nM.

In the case of “GGAGAGAAACAGGAUAUGGGAGGGAGGACCGGACCAGAAGGGUUGACAUGAGGAUCACCCAUGUAGAGAUCCUC [AK-MS2ROC-r4-exclusion6-6.7] (Eterna round: R97, puzzle: Exclusion 6)”, the “apparent KD of MS2 coat protein” value (input ligand: FMN 200 uM) worked out at 486 nM and the “apparent KD of MS2 coat protein” value (input ligand: none) came out at 1700 nM.

As to “GGAGAGAUAUAGGAUAUGGGAGGGAGGACCGGACCAGAAGGAUAGACAUGAGGAUCACCCAUGUAGAGAUCCUC [AK-MS2ROC-r4-exclusion6-6.1] (Eterna round: R97, puzzle: Exclusion 6)”, the “apparent KD of MS2 coat protein” value is, setting by setting: (input ligand: FMN 200 uM) 302 nM; (input ligand: none) 270 nM.

In the case of “GGAGCGGAAGGAUAUGCUGCGGGAUUGAAUGGAAAGAAAAUACAUGAGGAUCACCCAUGUAGAAGGUCCGUGAA [Tiquxe] (puzzle: Exclusion 2)”, the “apparent KD of MS2 coat protein” value under setting [1] was found to be 17 nM.

Turning to “GGAUCACAUGUUAGGAUAUGCUGGUCCUUGGAUCAGCAGAAGGGACAUGAGGAUCACCCAUGUCAUGAAGAUCC [Eli bmx4 4.81] (Eterna round: R97, puzzle: Brourd's mod of Exclusion 4)”, the “apparent KD of MS2 coat protein” value runs as follows: (input ligand: FMN 200 uM) 52.8 nM; (input ligand: none) 24.1 nM.

Take “GGAUCGAAUGUCAGGAUAUACCACUGGAUACAGUGGUAGAAGGGACAUGAGGAUCACCCAUGUGUUAUCGAUCC [Fiskers BMX 4 - 56] (puzzle: Brourd's mod of Exclusion 4)”: the “apparent KD of MS2 coat protein” value under setting [1] turned out to be 36.5 nM.

Consider “GGAUCGAAUGUGAGGAUAUACCUAUGGAAACAUAGGUAGAAGGCACAUGAGGAUCACCCAUGUCCAAACGGUCC [Mat - Exclusion 4 - Eli Mod - D13] (Eterna round: R97, puzzle: Brourd's mod of Exclusion 4)”, for which the “apparent KD of MS2 coat protein” value by setting is: (input ligand: FMN 200 uM) 1050 nM; (input ligand: none) 225 nM.

As for “GGAUCGAAUGUGAGGAUAUGCAGGUCCUUGGAUCUGCAGAAGGCACAUGAGGAUCACCCAUGUGAUCAAGAUCC [Mat - Exclusion 4 - Eli Mod - D48] (Eterna round: R97, puzzle: Brourd's mod of Exclusion 4)”, the “apparent KD of MS2 coat protein” value is 63 nM (input ligand: FMN 200 uM) and 772 nM (input ligand: none).

With “GGAUCGAAUGUGAGGAUAUGCUGGUCCUUGGAUCAGCAGAAGGCACAUGAGGAUCACCCAUGUGAUAUCGAUCC [Eli bmx4 4.71] (Eterna round: R97, puzzle: Brourd's mod of Exclusion 4)”, the “apparent KD of MS2 coat protein” value is 443 nM (input ligand: FMN 200 uM) and 89.2 nM (input ligand: none).

Take “GGAUCGAGUGUGAGGAUAUACCACUGGAUACAGUGGUAGAAGGCACAUGAGGAUCACCCAUGUCCCUACGAUCC [Fiskers BMX 4 - 45] (puzzle: Brourd's mod of Exclusion 4)”: the “apparent KD of MS2 coat protein” value under setting [1] worked out at 28.2 nM.

Regarding “GGAUCUACUGAGGAUAUUACAUCACCCGAUUGAUAAGAAGGCAGAACAUGAGGAUCACCCAUGUGGGUAGCCAA [Polaris] (Eterna round: R97, puzzle: Exclusion 6)”, the “apparent KD of MS2 coat protein” value was 36.9 nM (input ligand: FMN 200 uM) and 21 nM (input ligand: none).

Consider “GGCACACAUGAGGAUCACCCAUGUGAGGAUAUUAGGCGAUCGUCGAAAGACGAUAGCCUGAGAAGGCACAUGCC [Eli x1 4.12] (Eterna round: R97, puzzle: Exclusion 1)”, for which the “apparent KD of MS2 coat protein” value reads like this: (input ligand: FMN 200 uM) 92.2 nM; (input ligand: none) 19.8 nM.

As to “GGCAUCGGAGGAUAUACUUAAGGUGAUGUUCGAAGCUUUCUACUUGAGGAUCACCCAAGUAGAAGGCCGAUGCC [jl-ex2.4.77 ViennaUCT mod] (Eterna round: R97, puzzle: Exclusion 2)”, the “apparent KD of MS2 coat protein” value runs as follows: (input ligand: FMN 200 uM) 7.63 nM; (input ligand: none) 19.6 nM.

Turning to “GGCCCGGGAGGAUAUACAAUGGGCUCGGGAAAUCGGGCUCGACAUGAGGAUCACCCAUGUAGAAGGCCCGGGCC [-36.5, -34.6 kcal A 24%, 4,0] (Eterna round: R97, puzzle: Exclusion 2)”, the “apparent KD of MS2 coat protein” value amounted to 34 nM (input ligand: FMN 200 uM) and 21.8 nM (input ligand: none).

Turning to “GGCCCGGGAGGAUAUACAUGAGGAUCACCCAUGUAGCCCGGCCCGAUCGGGCCGGGCUGUAGAAGGCCCGGGCC [-49.2, -46.3 kcal, 19% A] (Eterna round: R97, puzzle: Exclusion 3)”, the “apparent KD of MS2 coat protein” value by setting is: (input ligand: FMN 200 uM) 16.9 nM; (input ligand: none) 13 nM.

“GGCCCUAAGGUCAGAUCCACAAGCUUUUUGCUCGUUUUAACAUGAGGAUCACCCAUGUCUAGUGGAUCUGAUCCUCU [Sensor v3, turn-off variant 2 (MOD of Indiso v.4)] (puzzle: Sensor v3, turn-off variant 2)”: the “apparent KD of MS2 coat protein” value runs as follows: (Eterna round: R95, input ligand: FMN 200 uM) 25.2 nM; under setting [1], 15.4 nM; (Eterna round: R95, input ligand: none) 21.6 nM.

Take “GGCCGUAAUAAGGAUAUCACUAGCCUCGGCUAGUGAGAAGGUAUUACAUGAGGAUCACCCAUGUGAUCAGGCCA [E6/3-B2] (Eterna round: R97, puzzle: Exclusion 6)”: the “apparent KD of MS2 coat protein” value is, setting by setting: (input ligand: FMN 200 uM) 862 nM; (input ligand: none) 160 nM.

With “GGCCGUUUUCGGCCCGGGCGGGCCACAUGAGGAUCACCCAUGUAGGAUAUCGCCGGGUUUCCCGGCGAGAAGGGCAGGGCCCGC [first try] (Eterna round: R96, puzzle: Exclusion NG 3)”, the “apparent KD of MS2 coat protein” value runs as follows: (input ligand: FMN 200 uM) 13.4 nM; under setting [2], 13.7 nM; (input ligand: none) 17.5 nM.

As to “GGCGUGUCGCGAGGAUAUUCAAACGGACAUGAGGAUCACCCAUGUGAAAGGAAUGUCGAGGUUAUGGAGAAGGCGUUCACGCCG [Qubizace] (Eterna round: R96, puzzle: Exclusion NG 2)”, the “apparent KD of MS2 coat protein” value runs as follows: (input ligand: FMN 200 uM) 549 nM; under setting [2], 92 nM; (input ligand: none) 153 nM.

As for “GGCUUCUGAGGAUAUUAACACCGUUACAUGAGGAUCACCCAUGUUCCUCACGCUACGGCUUAAGAAGGCAGAUGAA [Eternabot (Original) Solution 32] (Eterna round: R97, puzzle: Exclusion 5)”, the “apparent KD of MS2 coat protein” value came out at 29.6 nM (input ligand: FMN 200 uM) and 64.9 nM (input ligand: none).

Consider “GGGAAGAACCAACAAGUAGACAUGAGGAUCACCCAUGUAGACUUCAUGUGCACGCAAAGCGUGCAAGCUCGUCUUAU [AK-miRNA-r3-14.4] (Eterna round: R97, puzzle: Sensor, turn-off variant 1)”, for which the “apparent KD of MS2 coat protein” value by setting is: (input ligand: FMN 200 uM) 22.9 nM; (input ligand: none) 19.8 nM.

Consider “GGGCCCGGAGGAUAUACAAUCCCGGGUUGAAAGGCCCGGGUACAUGAGGAUCACCCAUGUAGAAGGCCGGGCCC [-42.3, -39.6 kcal A 24%, 5c bis,0] (Eterna round: R97, puzzle: Exclusion 2)”, for which the “apparent KD of MS2 coat protein” value by setting is: (input ligand: FMN 200 uM) 20.9 nM; (input ligand: none) 13.8 nM.

Take “GGGCCCGGAGGAUAUACAUGAGGAUCACCCAUGUAGGGCUCGGGUAUUCUCGGGCUCUGUAGAAGGCCGGGCCC [-39.6, -36.7 kcal, A 19%, 5,0] (Eterna round: R97, puzzle: Exclusion 3)”: the “apparent KD of MS2 coat protein” value runs as follows: (input ligand: FMN 200 uM) 17.5 nM; (input ligand: none) 18.6 nM.

On to “GGGCCCGGUGUGAGGAUAUGUUUGGGUAAACCCGGGCAGAAGGCACAUGAGGAUCACCCAUGUAAGCCGGGCCC [-37.5, -35.4 kcal, A 23%, 5bbis-0] (Eterna round: R97, puzzle: Brourd's mod of Exclusion 4)”, for which the “apparent KD of MS2 coat protein” value reads like this: (input ligand: FMN 200 uM) 14.7 nM; (input ligand: none) 19.2 nM.

“GGGUAGGGAGGAUAUCCAAUAUAUGACAUGAGGAUCACCCAUGUUUCCACUCGUACCUCCGGAGAAGGCCCAUCCC [Ex5 #14] (Eterna round: R97, puzzle: Exclusion 5)”: the “apparent KD of MS2 coat protein” value is 25.6 nM (input ligand: FMN 200 uM) and 21.4 nM (input ligand: none).

As to “GGGUAGUGAGGAUAUACAUGAGGAUCACCCAUGUUUGCGACACUGGAGGCGUCUCUAUGUAGAAGGCGCGGCCG [EX3 B.16] (Eterna round: R97, puzzle: Exclusion 3)”, the “apparent KD of MS2 coat protein” value reads like this: (input ligand: FMN 200 uM) 30.4 nM; (input ligand: none) 18.9 nM.

Regarding “GGGUCACAUGAGGAUCACCCAUGUGAGGAUAUGAUACUAUGUACUUCGGUACAUAGUAUCAGAAGGCACAUCCC [Ex1-3: 17] (puzzle: Exclusion 1)”, the “apparent KD of MS2 coat protein” value under setting [1] was determined as 18.6 nM.

As to “GGGUGACAGUUAGGAUAUCUUAGCACGCCGUAGAGAGAAGGGACAUGAGGAUCACCCAUGUUGUAGUGCCUCAAACACUGCUAG [Beintitian] (Eterna round: R96, puzzle: Exclusion NG 1)”, the “apparent KD of MS2 coat protein” value is, setting by setting: (input ligand: FMN 200 uM) 45.7 nM; under setting [2], 31.9 nM; (input ligand: none) 48.3 nM.

For “GGGUGACAUGAGGAUCACCCAUGUGAGGAUAUCUGGAUACUCUUUAUUUUAGAUAUCCAGAGAAGGCACACCCU [Ex1-3: 6Z] (puzzle: Exclusion 1)”, the “apparent KD of MS2 coat protein” value under setting [1] was 356 nM.
